In publication PMC6265731 one finds fold decrease of P3a (normalised to CP) in ΔP17 APs against WT APs, fold increase of P17 (normalised to CP) in ΔCP APs against WT APs and fold increase of P1 (normalised to CP) in ΔRTC APs against WT APs data, which are given here for three molecules.

What all share (test): affinity purification with mass spectrometry
The target of assay [1] is WT PLRV (assembled virions and/or soluble structural proteins CP and RTP, as captured by the α-PLRV antibody) (Potato leafroll virus).
For assay [2], the target named is non-incorporated (soluble) form of the PLRV readthrough protein expressed by the ΔCP mutant (Potato leafroll virus).
The target in assay [3] is ΔRTC PLRV (virions and soluble structural proteins of the mutant whose RTD lacks the last 218 C-terminal residues) (Potato leafroll virus).

In the case of “Potato leafroll virus P3a protein (from UniProt P0DTK2 1-45) (natural protein)”, in assay [1], the fold decrease of P3a (normalised to CP) in ΔP17 APs against WT APs was determined as 3.4 fold.

B1: Potato leafroll virus P17 movement protein (natural protein)
chain: MSMVVYNNQECEEGNPFAGALTEFSQWLWSRPLGNPGAEDAEEEAIAAQEELEFPEDEAQARHSCLQRTTSWATPKEVSPSGRVYQTVRHSRMEYSRPTMSIRSQASYFSSSARPLPPPPVPSLMSWTPIAKYHPSSPTSTSSKLRRAAPKLIKRG
The molecule B1 had a fold increase of P17 (normalised to CP) in ΔCP APs against WT APs in assay [2] of 1.8 fold.

B2: Potato leafroll virus P1 polyprotein (natural protein)
chain: KEAGFLHPAFNFRGTSTMSASSGDYSAAPTPLYKSWALPSSLNLTTQPPPPLTDRSYYELVQALTSKMRLDCQTVGDMTWRHLSEMLFASWNSVKEVSLKAASVTLWAIINIWFGLYWTLARLITLFLWTFSIEALCLILLGCITSLIYKGALSLSEHLPVFLFMSPLKIIWRAAFSKRNYKNERAVEGYKGFSVPQKPPKSAVIELQHENGSHLGYANCIRLYSGENALVTAEHCLEGAFATSLKTGNRIPMSTFFPIFKSARNDISILVGPPNWEGLLSVKGAHFITADKIGKGPASFYTLEKGEWMCHSATIDGAHHQFVSVLCNTGPGYSGTGFWSSKNLLGVLKGFPLEEECNYNVMSVIPSIPGITSPNYVFESTAVKGRVFSDEAVKELEREASEAVKKLARFKSLTDKNWADDYDSDEDYGLEREAATNAPAEKTAQTNSAEKTAPSTSAEKTALTNKPLNGQAAPSAKTNGNSDIPDAATSAPPMDKMVEQIITAMVGRINLSEIEEKIVSRVSQKALQKPKQKKRGRRGGKNKQNSLPPTSTQSTSGAPKKEAAPQASGSAGTSRATTTPAPEAKPSGGKNSAKFTPSWRIKQQDSAGQKPDLKLNSKA
In the case of B2, the fold increase of P1 (normalised to CP) in ΔRTC APs against WT APs in assay [3] was 1.8 fold.
